Assay: soluble on expression in E. coli; label from the status in PepcDB or PDB records

| Sequence | soluble on expression in E. coli |
| --- | --- |
| MGHHHHHHSHMAFPPGALHPLPKRQALEKSNGTSAVFNPSVLHYQQALTSAQLQQHAAFIPTDNSEIISRNGMECQESALRITKHCYCTYYPVSSSIELPQTAC | not soluble |
| MSLNKAILHDHLDGGLRPSTALELAKNDSYKPLLEIENISSFFDRSSSNSLEDYLEAFIHTTALMNKYENLERIAFEAAEDMHNCGINLYESRYAPLYSVNENLSIKDVLESINSGFKQAENLYGIQSGLILCGMRNDLKNVESVGEIAVKYKDLIIGFDIAGPELNFRPSLFSSTFKKVKNAGVNITIHAGEGDNVESIKDALENGAKRIGHGVRIIEDINLENNKLGETASLIRDKQIPLEICITSNIHTNMYKSYESHPIKDLVDLGFNISLNTDNRLMSNTDIVKEMNICKNIGIKNPENLLEMSASYSFLNEGHHHHHH | not soluble |
| MGSDKIHHHHHHKDLLGREVEIPSNVNRIVAVGPGALRLIAYLKATDMVVGVEDFEKLRPYGRPYILAYPELKKLPSVGPGGPGKLPDLESLITLQPDVVFITYVDRKTAKDIQEKTGIPVVVLSYGNLGTFEDEDLFRSIELAGKILGREERAHEVVDFIRKAQEDLVTRSEGVESPTVYVGGIGYKGAHGIDSTEAKYPPFVVLHARNVVDELGEGHKFIDPEKLLVWNPEYIFIDENGLSLVLDDYSKHREFYESLSAVKRGKVYGILPYNYYTTNIGTALADAYFIGKVLYPERFTDIDPEEKADEIYEFLLGKRVYGEMAEQFGGFGKIDLPSGRILRGTW | not soluble |
| MFTRQAGHFVEGSKAGRSRGRLCLSQALRVAVRGAFVSLWFAAGAGDRERNKGDKGAQTGAGLSQEAEDVDVSRARRVTDAPQGTLCGTGNRNSGSQSARAVGVAHLGEAFRVGVEQAISSCPEEVHGRHGLSMEIMWAQMDVALRSPGRGLLAGAGALCMTLAESSCPDYERGRRACLTLHRHPTPHCSTWGLPLRVAGSWLTVVTVEALGRWRMGVRRTGQVGPTMHPPPVSGASPLLLHHLLLLLLIIILTC | not soluble |
| DSYPDSQIEIRTLVGPYENTLVFRDTGPGIDDSILHKIFDDFFSFQKSGGSGLGLGYCQRVMRSFGGRIECKSVTNEFTEFYLHFPVVPNAPKVETLRTPNFYNWNQKVKTK | not soluble |
| MSLMKQNPILITGGTGTVGSRIASRLIKLGYRVRIASRKKGALADAEYVYFNWKYASSFTPALEQVKQIYLVAPVGVFDPAPYVLPFLKEAKRLGAKRVVMQSASVVSENGPVFGALHQAVREFPEWTVLRPSYFMQNFINVQHRMSIQTEGRITTASGEGKLGFIDADDIAETAVRALIDDVPHQTHHILTGPEALSYAEAAEIIGAAAGRRVEHVSISRSELQHKMEAGGLPADYAHFMAKLDEAISHGAEHRVTDTVKRVTGKEPRSLSEFAAAHAAYWTSFWTEEGGSHHHHHH | soluble |
| MGQTLFDKVWNRHVLYGKLGEPQLLYIDLHLIHEVTSPQAFEGLRLQNRKLRRPDLTFATLDHNVPTIDIFNIKDEIANKQITTLQKNAIDFGVHIFDMGSDEQGIVHMVGPETGLTQPGKTIVCGDSHTATHGAFGAIAFGIGTSEVEHVFATQTLWQTKPKN | not soluble |
| MGSDKIHHHHHHNRRELTYSPEATITISADWSQSGLNEKEQDYGATAIFYPTDGSTPFVALMGDRTYKTLCLKEGCYNVVLFNRSFDDFGNLCFRGEENYQTLEAYVKKMEIRNESSSERIIMESPDELAADYIEGFEVTSDMPENYSSAITQQSNRNSTRNENSCHLRFTPKKLTQKITVKIRIKGMNNIRKATCTLDGIAESIFLVSKQNSEKTVTQVLRLSNPIYDSGSVTEGTLSTTISVFGFDVEIPHNLHLKAKLVDGKTIFEESFNDLAIRRLDEEDGTMSVFIDMACEKTVPNVKTEGSSGFDADVDKWNDEVNSDIDI | not soluble |
| MKPRDINKLIASKIFGYEIKDDNIIKDGRYRLGIPLYSQNIESAWQVVEKLEYDVKVTKTDLKPKYQVHVFVPGGVKMVFAETAPMAICKGALASVDIELQD | soluble |
| MGSDKIHHHHHHMAGRFDAFVLFAEMRTGSNYLEDSLNTFADINCLGEVFNPTFIGHDNNFEMLGYDMDRREHDPLGLLDAIIDTVDGLPGFRLFHDHDTRVVDRVLPDPRIAKVILTRNPLDSYVSRKIATATGQWKLTDMKHAKTAQIRFDADEFGALLDAVLPFQEYVRQGLLKSGQVAFQVRYEDINDPEMLNGLAAFLGSDERVERASKTLKRQNPAPLRDKVENYEEMVAALSDLDRFGLDKLPELEPDRGAQVPNFVAHPTLGLLFCPIKGAPEKSVLNWMGALGDVGKDALIRKMTQKQLRQWMKDNPGFRSFTVLRHPVVRAYTVFNRFILPDDRPAYADPRKTLRQRYKVPIPENAPGDGWTEAEQKAAFQGFIFFLKGNLAGQTSVRVDQAWATQTAILQGTSSVMVPQAVIHEDHMTEALPALAHQVGAEDVPQVVEEAMPGLHKLKSIYDGKIEQALIDTYRRDYVGFGFPRWNKR | not soluble |
| MSYLRALFFVLAMLATFGSMAGEPAHSDSGRDQVIRQILSDFWGNAKDVHGNAIQPASQEDRATVPISRAAAYRALEAGNLSGLAEWCGLDWEQHYLGLTEEARKMGMLDKQVAFFSVLHGAGQGAMVGSRSGQTCTAKQRTRIETLLLESQKEGLPSDALNGWQ | not soluble |
| MAIPFFEEEHAPKSEPSGDQVDSPMAFSIDPGHDQVDFEGPPSAAEELPPPGATSEPVAPPSAEEQLLAWKFLAITMCKVLKQFYQQHKSSGKSSKLKATVQIQPQAQ | not soluble |
| MIKKITISDLIRMGDEKEREWFMFHAEVERIFNDTEIVGIKYQATITYVIGELDEDVLNTVFESNWNKTAEVLKKHEIEVEDIKIDKNEKKVEIKLKTSGIVYREGLFEFEDIKELLKDVLARKIEEAWISVLQEHGYILEHHHHHH | soluble |
| VDSKKRPGKDLDRIDRNILNELQKDGRISNVELSKRVGLSPTPCLERVRRLERQGFIQGYTALLNPHYLDASLLVFVEITLNRGAPDVFEQFNTAVQKLEEIQECHLVSGDFDYLLKTRVPDMSAYRKLLGETLLRLPGVNDTRTYVVMEEVKQSNRLVIKTR | soluble |
| SNIMDFNVKKLAADAGTFLSRAVQFTEEKLGQAEKTELDAHLENLLSKAECTKIWTEKIMKQTEVLLQPNPNARIEEFVYEKLDRKAPSRINNPELLGQYMIDAGTEFGPGTAYGNALIKCGETQKRIGTADRELIQTSALNFLTPLRNFIEGDYKTIAKERKLLQNKRLDLDAAKTRLKKAKAAETRNSSEQELRITQSEFDRQAEITRLLLEGISSTHAHHLRCLNDFVEAQMTYYAQCYQYMLDLQKQLGSFPSNYLSNNNQTSVTPVPSVLPNAIGSSAMASTSGLVITSPSNLSDLKECSGSRKARVLYDYDAANSTELSLLADEVITVFSVVGMDSDWLMGERGNQKGKVPITYLELLN | not soluble |
| MWKNGAMRGCNKETGEFLGPSRSQQRRTALEVLVLSEKLAALTPAQLAKLPIPERLLPHITETKRITSHIARKRQLAFLAKQMRREDDTTLEAIREKLNASGIQAQREVATLHRTEQWRKRLLEEGDSALTELLNQYPQADCGKLRQLLRNSKTEQARNKAPQAFRELYQVLHGLIITQNSDNQHQTPQ | soluble |
| SDAALLLNVEGVKKTILHGGTGELPNFITGSRVIFHFRTMKCDEERTVIDDSRQVGQPMHIIIGNMFKLEVWEILLTSMRVHEVAEFWCDTIHTGVYPILSRSLRQMAQGKDPTEWHVHTCGLANMFAYHTLGYEDLDELQKEPQPLVFVIELLQVDAPSDYQRETWNLSNHEKMKAVPVLHGEGNRLFKLGRYEEASSKYQEAIICLRNLQTKEKPWEVQWLKLEKMINTLILNYCQCLLKKEEYYEVLEHTSDILRHHPGIVKAYYVRARAHAEVWNEAEAKADLQKVLELEPSMQKAVRRELRLLENRMAEKQEEERLRCRNMLSQGATQPPAEPPTEPPAQSSTEPPAEPPTAPSAELSAGPPAEPATEPPPSPGHSLQH | soluble |
| MNLIPQDVLKKYLLPIRDLATSTFVFKKKYTRECQRSTPRNFINQFLLLFLKVPFSLLQELKLSKMLEIDKDKKVLIGCLAGSFLFYHTARQIYSYMSVKPREWVPVGVVKSLHIFPIKSCKSVDVFAFKCTKLGPVMGDLEDRAFMLVEESTGKFITARQKPKLVHVENYMTDGMLEVTVPGQPKLSVDLRKVLQNKRTIRATLFKNLKQDGYDCGDEVAKLLSDYIEEPNYRLIFYKEGLYTERTVIPDDQWWNNPVPKRNDDSGFTDLAPFHIATDASLKVLNEKLDNKITMRYFRPSIYIEGCAAWDEDKWAEIRIGDAHLECFAPCTRCVLTTVDPVKGEMSKEMQPLKKLREFRLVPDGKMRKVHMESPVFGVYAGLVNEGYIHTGQTVYVRYKPTAF | not soluble |
| MLDHNRLEEFIEQIRLTPAIWKNREFDISREHMNEIWAHFGHTFDISPKEAEMQWEYLIRLHRFMNRNASLEQFRIEVPSLEDDFTPADTLVAESLAIFLKPTLDELLLISKPSETSV | not soluble |
| MAHHHHHHMNRSASLPSASPSLSTMRTITVALCASSKKHQQSFDALREAGKLHNERLLLMRQHSASRQAGCGDVSGEAGEASTAAPQEGCASGSRGMSSHSRSRRTSRATSEVLAHPARSRSTTEGSLSCAALSNCLFRFLSLNYDAQRHRMVLCIDGDIKEVHQSSAAAFAQDGSKANAQQSPSVDEHAGTDSTVRGEGEPSQSALMDEVDVVLHKVATFGTPVAIRALHQWYNGAQKRRSRQRRAPLIVVDPLEKVQLLMTRSMLCKLLNNVGDDGQPIALIPRTFVWDCPSDAACRHARRTNGSSAATPLGIHSFTSMEEQEARANGTAAEHWWIAKPDESTGAAFTHHLVMWLTRDADVSVPTAVKAALPTEACRFILQELYVYALPVVLKVYCVGSHISVKVNPTVSLLNYLWEHTRGSTLADVPVAMDSQDKAFFSTVASVSTSRSQPTLSAMTSSTDDDALPATSPTMNATNAAGAPPSPTELPQGTSSESASAEQSLIAWESMVVPVDYWNAFLAPGTPAYTAISKLAQDLSGDAGVGLSLYGFDLVLVPQYLAHTYQRKGARGIGRTEGATVRYEGVAPSLSKVAHRSADTAKPVQRIPASHSMRKLPGAGASAPPSPVSQLFRASDMFDLASGAPTSLLLDSIPVVIDVNYFPGYKGVAEVNQHMLELIALKSMHLQDGSSNRAWHADTATGAEAKKRRCSMM | not soluble |
| MERAGICHSDGFDLAYRIEGEGAPILVIGSAAYYPRLFSSDIKQKYQWVFVDHRGFAKPKRELRAEDSRLDAVLADIERMRTFLQLEDVTTLGHSGHAFMALEYARTYPKQVRKVALFNTAPDNSEERQRKSESFFMETASLERKKRFEKDIENLPQDIDKDPERRFVHMCIRAEAKSFYQERPHAAALWDGVFTNMPIIDELWGNTFARIDLLQRLADVRMPVYIGLGRYDYLVAPVSLWDAVDGLYPHVDKVIFEKSGHQPMLEEPEAFDQSFRKWLDQ | not soluble |
| MILMAIGLLMGSYYAVEWYKGKSSAQELTNEEIKSFKNIQHNQLPYETLVTSQVPSSQTEHKEGEKVAMLNIPKLKKKFSIYWGADDATLKKGVGMFVSDVTTTPSGGGHTVLSGHRDTVFTDLGQLKEKDTLVLEYDNKTYTYEIQKIWITHADDRTVIIKKEEPILTLTTCYPFDYIGDAPDRYIIEAKLTGSYSK | not soluble |

From the DeepSol protein solubility set
